In paper PMC4080450, “The pseudo GTPase CENP-M drives human kinetochore assembly” (eLife, 2014):

Target: T1, CENP-H/His-CENP-K complex (human, UniProt Q9H3R5 1-247; Q9BS16 1-269)
T1 construct: human CENP-H, without any tag; human CENP-K; also called CENP-H/K complex; source: Tnao38 insect cells, co-expressed, purified; not shown: His6, N-terminal, kept
Experiment: SEC; analytical SEC co-elution (Superdex200 5/150 or Superose6 5/150), 4°C; proteins mixed in 50 µl, at least 2 hr on ice; SEC buffer with 150 mM NaCl
Conditions: both partners purified

T1 sequence (Q9H3R5 whole entry, chain 1 of 2): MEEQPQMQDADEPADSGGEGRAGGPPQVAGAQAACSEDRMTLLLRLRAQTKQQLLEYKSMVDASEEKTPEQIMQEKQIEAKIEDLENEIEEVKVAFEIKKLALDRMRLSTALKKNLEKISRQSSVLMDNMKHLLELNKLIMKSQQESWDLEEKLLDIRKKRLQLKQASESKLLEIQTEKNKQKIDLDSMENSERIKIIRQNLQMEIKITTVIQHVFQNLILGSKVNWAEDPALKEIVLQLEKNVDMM
T1 sequence (Q9BS16 whole entry, chain 2 of 2): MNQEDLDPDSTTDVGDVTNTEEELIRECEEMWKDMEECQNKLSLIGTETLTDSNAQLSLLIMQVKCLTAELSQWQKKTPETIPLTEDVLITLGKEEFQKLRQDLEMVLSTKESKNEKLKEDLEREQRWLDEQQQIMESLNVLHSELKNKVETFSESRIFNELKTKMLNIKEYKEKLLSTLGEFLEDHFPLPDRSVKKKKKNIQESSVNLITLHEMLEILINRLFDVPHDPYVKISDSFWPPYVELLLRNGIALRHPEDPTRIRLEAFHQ

binding result: binds
B1: His-CENP-I^57–281 (domain or fragment, human, UniProt Q92674 57-281, looked up)
chain: ADDQAEEDALQMAVGYFEKGPIKASQNKDKTLEKHLKTVENVAWKNGLASEEIDILLNIALSGKFGNAVNTRILKCMIPATVISEDSVVKAVSWLCVGKCSGSTKVLFYRWLVAMFDFIDRKEQINLLYGFFFASLQDDALCPYVCHLLYLLTKKENVKPFRVRKLLDLQAKMGMQPHLQALLSLYKFFAPALISVSLPVRKKIYFKNSENLWKTALLAVKQRNR
notes: CENP-I residues 57-281; no methods paragraph tells how this fragment was made; also called N-terminal region of CENP-I; I^N; source: recombinant, expressed in a soluble form
